The text below walks through data of publication PMC9500956, “In Vitro Characterization of the Physical Interactions between the Long Noncoding RNA TERRA and the Telomeric Proteins TRF1 and TRF2”.

The target in data set [1] is GST-A1-50B (human) (UniProt P54274+Q15554). The data set can be described thus: EMSA. The settings on record: RNA EMSA: 50 mM HEPES pH 8, 1 mM DTT, 100 mM NaCl, 0.01% BSA, 2% glycerol, 50 ng/uL E. coli tRNA, 0.25 nM RNA, 20 min on ice then 10 min 25 C; dsDNA EMSA: same …. (In general: A gel shift assay detects complexes by their altered migration in electrophoresis.)
Data set [2] has as its target GST-AP2EAB (human) (UniProt P54274+Q15554). The data set can be described thus: EMSA. The conditions noted are these: RNA EMSA: 50 mM HEPES pH 8, 1 mM DTT, 100 mM NaCl, 0.01% BSA, 2% glycerol, 50 ng/uL E. coli tRNA, 0.25 nM RNA, 20 min on ice then 10 min 25 C; dsDNA EMSA: same ….
In data set [3] the target is GST-TRF2ΔB (human, UniProt Q15554 87-542, del43-86). The data set can be described thus: EMSA; E. coli tRNA; RNA EMSA: 50 mM HEPES pH 8, 1 mM DTT, 100 mM NaCl, 0.01% BSA, 2% glycerol, 50 ng/uL E. coli tRNA, 0.25 nM RNA, 20 min on ice then 10 min 25 C; dsDNA EMSA: same. The conditions noted are these: protein: recombinant, tags: N-terminal GST, chain copies: 2, label: 5'-32P.

The target in data set [4] is GST-TRF1ΔA (human, UniProt P54274 67-439, del1-66). The description is as above. The settings on record: protein: recombinant, tags: N-terminal GST, chain copies: 2, label: 5'-32P.
Data set [5] deals with T1, GST-B R13-30A (human, UniProt Q15554 43-86, R55A;R59A;R60A;R63A;R67A;R69A;R70A;R72A).
T1 chain: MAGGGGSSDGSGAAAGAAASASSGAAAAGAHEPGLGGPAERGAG
Described as above. The conditions noted are these: protein: recombinant; tags: N-terminal GST; label: 5'-32P; G4-forming.

Chain of GST-TRF1ΔA (P54274 67-439, stated change not applied): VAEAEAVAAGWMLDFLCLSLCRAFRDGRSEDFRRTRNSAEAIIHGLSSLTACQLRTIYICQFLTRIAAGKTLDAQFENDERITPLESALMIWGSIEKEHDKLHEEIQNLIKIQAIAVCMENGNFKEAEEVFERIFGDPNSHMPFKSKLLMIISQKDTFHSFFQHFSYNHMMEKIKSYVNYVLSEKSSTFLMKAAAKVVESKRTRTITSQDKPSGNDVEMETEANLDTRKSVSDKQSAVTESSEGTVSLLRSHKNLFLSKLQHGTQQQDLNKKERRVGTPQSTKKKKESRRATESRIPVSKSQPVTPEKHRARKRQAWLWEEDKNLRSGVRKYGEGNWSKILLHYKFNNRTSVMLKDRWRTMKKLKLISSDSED
Chain of GST-TRF2ΔB (Q15554 87-542, stated change not applied): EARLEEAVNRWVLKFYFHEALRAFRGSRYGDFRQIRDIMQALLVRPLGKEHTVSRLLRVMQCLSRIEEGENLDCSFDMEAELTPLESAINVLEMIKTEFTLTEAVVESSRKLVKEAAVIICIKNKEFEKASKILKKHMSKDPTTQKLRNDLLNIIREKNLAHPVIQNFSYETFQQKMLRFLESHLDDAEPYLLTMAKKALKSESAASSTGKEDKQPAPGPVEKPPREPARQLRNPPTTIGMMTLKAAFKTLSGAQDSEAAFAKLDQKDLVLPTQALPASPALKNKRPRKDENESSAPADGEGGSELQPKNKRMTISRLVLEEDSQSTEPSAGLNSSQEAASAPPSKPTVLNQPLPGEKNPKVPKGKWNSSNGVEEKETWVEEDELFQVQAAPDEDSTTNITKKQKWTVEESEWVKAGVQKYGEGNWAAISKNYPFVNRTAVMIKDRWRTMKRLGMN
Chain of GST-AP2EAB (human) (P54274 whole entry, chain 1 of 2): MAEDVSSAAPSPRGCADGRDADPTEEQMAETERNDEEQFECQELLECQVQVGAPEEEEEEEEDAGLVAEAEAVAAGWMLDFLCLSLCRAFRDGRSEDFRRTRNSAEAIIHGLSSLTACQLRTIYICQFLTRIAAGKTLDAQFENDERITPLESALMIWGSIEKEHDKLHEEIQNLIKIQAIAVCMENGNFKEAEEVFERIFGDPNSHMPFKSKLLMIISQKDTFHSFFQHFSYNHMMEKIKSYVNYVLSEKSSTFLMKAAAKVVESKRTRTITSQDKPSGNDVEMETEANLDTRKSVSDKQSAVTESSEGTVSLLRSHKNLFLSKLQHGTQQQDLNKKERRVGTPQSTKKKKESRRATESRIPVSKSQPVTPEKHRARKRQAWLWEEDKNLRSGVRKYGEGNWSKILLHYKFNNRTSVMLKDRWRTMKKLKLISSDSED
Chain of GST-AP2EAB (human) (Q15554 whole entry, chain 2 of 2): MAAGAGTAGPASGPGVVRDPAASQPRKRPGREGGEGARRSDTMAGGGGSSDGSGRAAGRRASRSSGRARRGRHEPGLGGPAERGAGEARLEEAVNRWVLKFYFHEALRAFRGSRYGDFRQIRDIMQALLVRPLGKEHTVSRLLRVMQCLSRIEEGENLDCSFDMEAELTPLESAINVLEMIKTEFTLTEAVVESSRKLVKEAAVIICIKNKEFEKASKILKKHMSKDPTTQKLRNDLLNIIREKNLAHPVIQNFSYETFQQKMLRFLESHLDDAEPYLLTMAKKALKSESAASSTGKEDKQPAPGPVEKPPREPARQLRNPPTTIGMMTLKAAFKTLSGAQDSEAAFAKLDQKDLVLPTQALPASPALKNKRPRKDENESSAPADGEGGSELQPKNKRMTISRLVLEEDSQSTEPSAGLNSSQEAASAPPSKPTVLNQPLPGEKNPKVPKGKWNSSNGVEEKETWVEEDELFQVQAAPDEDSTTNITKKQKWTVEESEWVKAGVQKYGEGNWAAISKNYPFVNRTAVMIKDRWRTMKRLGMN
Chain of GST-A1-50B (human) (P54274 whole entry, chain 1 of 2): as the sequence (P54274 whole entry, chain 1 of 2) above
Chain of GST-A1-50B (human) (Q15554 whole entry, chain 2 of 2): as the sequence (Q15554 whole entry, chain 2 of 2) above

For “UUAGGGUUAGGGUUAGGGUUAGGGUUAGGGUUAGGGUUAGGGUUAGGGUUAGGGUUAGGGUUAGGGUUAGGG [TERRA (UUAGGG)12]”, the binding signal (% of B domain alone) in data set [1] is 60. The same molecule yielded a binding signal (% binding regained at 320 nM) in data set [2] of 80.

B1: MUT1 (UUACGG)5 (ssRNA)
RNA: UUACGGUUACGGUUACGGUUACGGUUACGG
On to B1, for which the binding result in data set [3] (not G4-forming) and in data set [4] (not G4-forming) was “no binding” each time.

B2: MUT4 (AAAGGG)5 (structured_RNA)
RNA: AAAGGGAAAGGGAAAGGGAAAGGGAAAGGG
Consider B2, for which the binding result in data set [3] (G4-forming) and in data set [4] (G4-forming) was “binds” in each case.

B3: MUT3 (AUAGGG)5 (structured_RNA)
RNA: AUAGGGAUAGGGAUAGGGAUAGGGAUAGGG
In the case of B3, the binding result in data set [3] (G4-forming) and in data set [4] (G4-forming) was “binds” each time.

B4: MUT2 (UUACCG)5 (ssRNA)
RNA: UUACCGUUACCGUUACCGUUACCGUUACCG
B4: the binding result in data set [3] (not G4-forming) and in data set [4] (not G4-forming) was “no binding” each time.

B5: TERRA (UUAGGG)5 (structured_RNA)
RNA: UUAGGGUUAGGGUUAGGGUUAGGGUUAGGG
Take B5: the binding result in data set [3] (G4-forming) is recorded as “binds”; in data set [5], “no binding”; in data set [4] (G4-forming) it was “binds”.
